{"source": "the RNAGym collection of RNA variant scans (doi:10.7554/elife.80360)", "parents": {"B1": {"name": "Hairpin Ribozyme (parent)", "chain": "GUCCUCUUUCACGUGCGCGUGAAAGAGAGAAGUGAACCAGAGAAACACACGUUGUGGUAUAUUACCUGGUA"}}}
{"variants_of": "B1", "test": "self-cleavage, relative activity (ratio to wild type); higher = more cleavage; co-transcriptional"}
{"variant": "GUCCUCUUUCCCGUGCGAGUGAAAGAGAGAAGUGAACCAGAGAAACACACGUUGUGGUAUAUUACCUGGUA", "note": "[A11C C18A]", "self-cleavage": 0.768}
{"variant": "GUCCUCUUUCCCGUGCGCGUGAAAGAGAGAAGUGAACUAGAGAAACACACGUUGUGGUAUAUUACCUGGUA", "note": "[A11C C38U]", "self-cleavage": 0.515}
{"variant": "GUCCUCUUUCCCGUGCGCGUGAAAGAGAGAAGUGAACCAGAGAAAGACACGUUGUGGUAUAUUACCUGGUA", "note": "[A11C C46G]", "self-cleavage": 0.204}
{"variant": "GUCCUCUUUCCCGUGCGCGUGAAAGAGAGAAGUGAACCAGAGAAAUACACGUUGUGGUAUAUUACCUGGUA", "note": "[A11C C46U]", "self-cleavage": 0.255}
{"variant": "GUCCUCUUUCCCGUGCGCGUGAAAGAGAGAAGUGAACCAGAGAAACAAACGUUGUGGUAUAUUACCUGGUA", "note": "[A11C C48A]", "self-cleavage": 0.0917}
{"variant": "GUCCUCUUUCCCGUGCGCGUGAAAGAGAGAAGUGAACCAGAGAAACAGACGUUGUGGUAUAUUACCUGGUA", "note": "[A11C C48G]", "self-cleavage": 0.0688}
{"variant": "GUCCUCUUUCCCGUGCGCGUGAAAGAGAGAAGUGAACCAGAGAAACAUACGUUGUGGUAUAUUACCUGGUA", "note": "[A11C C48U]", "self-cleavage": 0.266}
{"variant": "GUCCUCUUUCCCGUGCGCGUGAAAGAGAGAAGUGAACCAGAGAAACACAUGUUGUGGUAUAUUACCUGGUA", "note": "[A11C C50U]", "self-cleavage": 0.247}
{"variant": "GUCCUCUUUCCCGUGCGCGUGAAAGAGAGAAGUGAACCAGAGAAACACACGUUGUGGUAUAUUAGCUGGUA", "note": "[A11C C65G]", "self-cleavage": 0.331}
{"variant": "GUCCUCUUUCCCGUGCGCGUGAAAGAGAGAAGUGAACCAGAGAAACACACGUUGUGGUAUAUUACGUGGUA", "note": "[A11C C66G]", "self-cleavage": 0.0776}
{"variant": "GUCCUCUUUCCCAUGCGCGUGAAAGAGAGAAGUGAACCAGAGAAACACACGUUGUGGUAUAUUACCUGGUA", "note": "[A11C G13A]", "self-cleavage": 0.661}
{"variant": "GUCCUCUUUCCCGUACGCGUGAAAGAGAGAAGUGAACCAGAGAAACACACGUUGUGGUAUAUUACCUGGUA", "note": "[A11C G15A]", "self-cleavage": 0.819}
{"variant": "GUCCUCUUUCCCGUCCGCGUGAAAGAGAGAAGUGAACCAGAGAAACACACGUUGUGGUAUAUUACCUGGUA", "note": "[A11C G15C]", "self-cleavage": 0.752}
{"variant": "GUCCUCUUUCCCGUGCACGUGAAAGAGAGAAGUGAACCAGAGAAACACACGUUGUGGUAUAUUACCUGGUA", "note": "[A11C G17A]", "self-cleavage": 0.759}
{"variant": "GUCCUCUUUCCCGUGCGCUUGAAAGAGAGAAGUGAACCAGAGAAACACACGUUGUGGUAUAUUACCUGGUA", "note": "[A11C G19U]", "self-cleavage": 0.697}
{"variant": "GUCCUCUUUCCCGUGCGCGUAAAAGAGAGAAGUGAACCAGAGAAACACACGUUGUGGUAUAUUACCUGGUA", "note": "[A11C G21A]", "self-cleavage": 0.605}
{"variant": "GUCCUCUUUCCCGUGCGCGUCAAAGAGAGAAGUGAACCAGAGAAACACACGUUGUGGUAUAUUACCUGGUA", "note": "[A11C G21C]", "self-cleavage": 0.732}
{"variant": "GUCCUCUUUCCCGUGCGCGUGAAAUAGAGAAGUGAACCAGAGAAACACACGUUGUGGUAUAUUACCUGGUA", "note": "[A11C G25U]", "self-cleavage": 0.548}
{"variant": "GUCCUCUUUCCCGUGCGCGUGAAAGAGACAAGUGAACCAGAGAAACACACGUUGUGGUAUAUUACCUGGUA", "note": "[A11C G29C]", "self-cleavage": 0.137}
{"variant": "GUCCUCUUUCCCGUGCGCGUGAAAGAGAUAAGUGAACCAGAGAAACACACGUUGUGGUAUAUUACCUGGUA", "note": "[A11C G29U]", "self-cleavage": 0.113}
{"variant": "GUCCUCUUUCCCGUGCGCGUGAAAGAGAGAAGUUAACCAGAGAAACACACGUUGUGGUAUAUUACCUGGUA", "note": "[A11C G34U]", "self-cleavage": 1.45}
{"variant": "GUCCUCUUUCCCGUGCGCGUGAAAGAGAGAAGUGAACCACAGAAACACACGUUGUGGUAUAUUACCUGGUA", "note": "[A11C G40C]", "self-cleavage": 0.182}
{"variant": "GUCCUCUUUCCCGUGCGCGUGAAAGAGAGAAGUGAACCAUAGAAACACACGUUGUGGUAUAUUACCUGGUA", "note": "[A11C G40U]", "self-cleavage": 0.181}
{"variant": "GUCCUCUUUCCCGUGCGCGUGAAAGAGAGAAGUGAACCAGACAAACACACGUUGUGGUAUAUUACCUGGUA", "note": "[A11C G42C]", "self-cleavage": 0.441}
{"variant": "GUCCUCUUUCCCGUGCGCGUGAAAGAGAGAAGUGAACCAGAGAAACACACAUUGUGGUAUAUUACCUGGUA", "note": "[A11C G51A]", "self-cleavage": 1.08}
{"variant": "GUCCUCUUUCCCGUGCGCGUGAAAGAGAGAAGUGAACCAGAGAAACACACGUUGUUGUAUAUUACCUGGUA", "note": "[A11C G56U]", "self-cleavage": 0.0715}
{"variant": "GUCCUCUUUCCCGUGCGCGUGAAAGAGAGAAGUGAACCAGAGAAACACACGUUGUGCUAUAUUACCUGGUA", "note": "[A11C G57C]", "self-cleavage": 0.145}
{"variant": "GUCCUCUUUCCCGUGCGCGUGAAAGAGAGAAGUGAACCAGAGAAACACACGUUGUGGUAUAUUACCUAGUA", "note": "[A11C G68A]", "self-cleavage": 0.248}
{"variant": "GUCCUCUUUCCCGUGCGCGUGAAAGAGAGAAGUGAACCAGAGAAACACACGUUGUGGUAUAUUACCUCGUA", "note": "[A11C G68C]", "self-cleavage": 0.136}
{"variant": "GUCCUCUUUCCCGUGCGCGUGAAAGAGAGAAGUGAACCAGAGAAACACACGUUGUGGUAUAUUACCUGAUA", "note": "[A11C G69A]", "self-cleavage": 0.381}
{"variant": "GUCCUCUUUCCCGUGCGCGUGAAAGAGAGAAGUGAACCAGAGAAACACACGUUGUGGUAUAUUACCUGUUA", "note": "[A11C G69U]", "self-cleavage": 0.299}
{"variant": "GUCCUCUUUCCCGCGCGCGUGAAAGAGAGAAGUGAACCAGAGAAACACACGUUGUGGUAUAUUACCUGGUA", "note": "[A11C U14C]", "self-cleavage": 0.68}
{"variant": "GUCCUCUUUCCCGUGCGCGAGAAAGAGAGAAGUGAACCAGAGAAACACACGUUGUGGUAUAUUACCUGGUA", "note": "[A11C U20A]", "self-cleavage": 0.774}
{"variant": "GUCCUCUUUCCCGUGCGCGGGAAAGAGAGAAGUGAACCAGAGAAACACACGUUGUGGUAUAUUACCUGGUA", "note": "[A11C U20G]", "self-cleavage": 1.04}
{"variant": "GUCCUCUUUCCCGUGCGCGUGAAAGAGAGAAGAGAACCAGAGAAACACACGUUGUGGUAUAUUACCUGGUA", "note": "[A11C U33A]", "self-cleavage": 0.222}
{"variant": "GUCCUCUUUCCCGUGCGCGUGAAAGAGAGAAGCGAACCAGAGAAACACACGUUGUGGUAUAUUACCUGGUA", "note": "[A11C U33C]", "self-cleavage": 0.252}
{"variant": "GUCCUCUUUCCCGUGCGCGUGAAAGAGAGAAGGGAACCAGAGAAACACACGUUGUGGUAUAUUACCUGGUA", "note": "[A11C U33G]", "self-cleavage": 0.0703}
{"variant": "GUCCUCUUUCCCGUGCGCGUGAAAGAGAGAAGUGAACCAGAGAAACACACGCUGUGGUAUAUUACCUGGUA", "note": "[A11C U52C]", "self-cleavage": 1.06}
